B1: NbBCMA-8 (VHH)
VHH: QVQLVESGGGLVQAGGSLRLSCAASTRTFSSYVMAWFRQVPGKEREFVASRACSGGTPYYADSVKGRFFISRDDAKNTVYLRMNSLKPEDTAVYYCAAASIGATQYDYWGQGTQVIVSS
notes: Expressed in E. coli from PET30a(+); the supernatant of sonicated bacteria was used in flow cytometry; not shown: His tag from the PET30a(+) vector (detected with anti-his-FITC)
B2: NbBCMA-5 (VHH)
VHH: QVQLVETGGGLVQAGGSLRLSCAASGTIFSVYNMGWFRQAPGKQRELVAAITKNGSTSYKDSVKGRFTISTDNAKNTVDLRMSSLKLGDTAVYFCAAWDWDKNQAYWGQGTQVTVSS
notes: as for B1

Target: T1, BCMA on multiple myeloma cell lines RPMI8226 (low BCMA) and U266 (high BCMA) (human, UniProt Q02223 1-184)
T1 construct: whole, on cells; endogenous expression; also called CD269; TNFRSF17
T1 sequence (looked up): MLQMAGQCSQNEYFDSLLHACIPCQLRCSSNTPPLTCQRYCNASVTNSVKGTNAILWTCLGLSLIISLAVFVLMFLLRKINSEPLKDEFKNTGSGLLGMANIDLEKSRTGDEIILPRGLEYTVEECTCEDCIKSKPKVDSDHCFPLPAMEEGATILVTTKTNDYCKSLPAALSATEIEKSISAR
Assay: flow cytometry on RPMI8226 cells (low BCMA), anti-his-FITC

| Binder | binding result |
| --- | --- |
| B1 | binds |
| B2 | binds |

From patent CN117430709A (KANGWEI ZHONGHE ZHONGSHAN BIOLOGICAL PHARMACEUTICAL CO LTD; …, dated 2024)
